Test results reported in patent publication US20170165339A1 (IMMATICS BIOTECHNOLOGIES, published 2017).

Molecular target: HLA-A*02 (human)
Test: UV peptide-exchange ELISA, yield grade

Binder: SLTEVSLPL [SLTEVSLPL (SEQ ID NO: 45)]
- peptide exchange yield: 50 to 75%
